Where a chain is given by its changes, count along the chain named. In names and notes the source's numbering stands.
Columns and labels:
MeT1 = target: T1, MeT1 (Mycolicibacterium hassiacum, UniProt K5B7F3); assay: SahH-coupled DTNB assay of SAH release; assay type: biochemical; conditions: 100 μM MnCl2, BTP pH 7.5
T1 construct: full length, C-terminal His6 tag (pET30a), synthetic gene, E. coli BL21(DE3)

[1] = substrate: CCCO[C@H]1O[C@H](CO)[C@@H](O[C@H]2O[C@H](CO)[C@@H](O[C@H]3O[C@H](CO)[C@@H](O[C@H]4O[C@H](CO)[C@@H](O)[C@H](OC)[C@@H]4O)[C@H](OC)[C@@H]3O)[C@H](OC)[C@@H]2O)[C@H](OC)[C@@H]1O; assay: coupled PK/LDH NADH assay of GDP release; assay type: biochemical, Mycolicibacterium hassiacum; conditions: 2.5 mM GDP-Man, 7.5 mM MgCl2, 5 mM NaCl, 0.1% Triton X-100, 50 mM BTP pH 8.5, 37 °C, acceptor
Source text: (§1) coupled PK/LDH NADH assay of GDP release on ManT

[2] = substrate: Nc1nc2c(ncn2[C@@H]2O[C@H](COP(=O)(O)OP(=O)(O)O[C@H]3O[C@H](CO)[C@@H](O)[C@H](O)[C@@H]3O)[C@@H](O)[C@H]2O)c(=O)[nH]1; assay: coupled PK/LDH NADH assay of GDP release; assay type: biochemical, Mycolicibacterium hassiacum; conditions: 0.1% Triton X-100, 50 mM BTP pH 8.5, 37 °C, donor
Source text: as §1

[3] = substrate: CCCO[C@H]1O[C@H](CO)[C@@H](O[C@H]2O[C@H](CO)[C@@H](O[C@H]3O[C@H](CO)[C@@H](O[C@H]4O[C@H](CO)[C@@H](O)[C@H](O)[C@@H]4O)[C@H](O)[C@@H]3O)[C@H](O)[C@@H]2O)[C@H](O)[C@@H]1O; assay: coupled PK/LDH NADH assay of GDP release; assay type: biochemical, Mycolicibacterium hassiacum; conditions: 5 mM GDP-Man, 7.5 mM MgCl2, 5 mM NaCl, 0.1% Triton X-100, 50 mM BTP pH 8.5, 37 °C, acceptor
Source text: as §1

[4] = 3.5 mM sMetMan4, 7.5 mM MgCl2, 5 mM NaCl
[5] = 1.5 mM sMetMan4, 7.5 mM MgCl2, 5 mM NaCl

T1 sequence (K5B7F3 whole entry): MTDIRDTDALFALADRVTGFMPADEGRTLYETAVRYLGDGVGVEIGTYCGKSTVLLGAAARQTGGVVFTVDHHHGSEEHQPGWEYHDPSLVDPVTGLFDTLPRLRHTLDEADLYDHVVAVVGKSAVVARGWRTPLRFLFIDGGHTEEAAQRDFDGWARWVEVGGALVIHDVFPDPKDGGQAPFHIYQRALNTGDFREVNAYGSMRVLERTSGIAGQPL

C[S+](CC[C@H](N)C(=O)O)C[C@H]1O[C@@H](n2cnc3c(N)ncnc32)[C@H](O)[C@@H]1O (stereo partly drawn) [SAM, S-adenosyl-methionine]
SahH-coupled DTNB assay of SAH release (MeT1; 1.5 mM oligomannoside acceptor, methyl donor): quantified from the S-adenosyl-homocysteine (SAH) released from SAM through a continuous

CO[C@@H]1[C@H](O)[C@@H](O[C@H]2[C@H](OC)[C@H](O)C(O)O[C@@H]2CO)O[C@H](CO)[C@H]1O (stereo partly drawn) [sMetMan2]
SahH-coupled DTNB assay of SAH release (MeT1; 1 mM SAM, 1.5 mM acceptor): The activity of MeT1 toward the synthetic substrate sMetMan2 and the two natural substrates

B1: ManT (Mycolicibacterium hassiacum DSM 44199; E313A) (protein)
chain: MRIALLSYRSKTHCGGQGVYVRHLSRELAELGHDVEVFSGQPYPEGLDPRVRLTKVPSLDLYREPDPFRIPRPSEIKTSIDLEELLTTWTAGFPEPKTFSLRAARVLAGRRGDFDVVHDNQCLGTGLLQIAKMGFPLVATVHHPITRDREVEVAAARWWRKPLVRRWYGFVEMQKRVARQIPELLTVSSASASDILTDFAVSPEQLHVVPLGVDTKLFQPREGRVRNRIIAIASADVPLKGVSHLLHAVARLRVERDVELQLVTKLEPNGPTEKLIAELGISDIVHTSSGLSDEELAALLASAEVACIPSLYAGFSLPAVEAMASGTPIVASRAGALPEVVGPDGECARLVTPADVDELTAVLGRLLDSPRELRRLGDNGRRRAVEVFSWQSVAAQTVAVYEKAIARVAAC
notes: full length, N-terminal His6 tag (pETM11, tag not removed), synthetic gene, E. coli BL21(DE3); purified with Triton X-100
Km [1]: 1180 ± 300 µM
kcat/Km [1]: 5 ± 1 M⁻¹ s⁻¹
Km [2, 4]: 1230 ± 300 µM
kcat/Km [2, 4]: 7 ± 2 M⁻¹ s⁻¹

B2: ManT (Mycolicibacterium hassiacum DSM 44199) (protein)
chain: B1 chain with A313E
notes: as for B1
Km [3]: 2780 ± 450 µM
kcat/Km [3]: 9 ± 2 M⁻¹ s⁻¹
Km [1]: 130 ± 30 µM
kcat/Km [1]: 362 ± 68 M⁻¹ s⁻¹
Km [2, 5]: 280 ± 50 µM
kcat/Km [2, 5]: 171 ± 33 M⁻¹ s⁻¹

Reference: publication PMC9883506, “Self-recycling and partially conservative replication of mycobacterial methylmannose polysaccharides” (Communications Biology, 2023)
